Measured values: patent US20100304465

Target: delta-plasminogen
Sequence (chain, as listed by the source mutant): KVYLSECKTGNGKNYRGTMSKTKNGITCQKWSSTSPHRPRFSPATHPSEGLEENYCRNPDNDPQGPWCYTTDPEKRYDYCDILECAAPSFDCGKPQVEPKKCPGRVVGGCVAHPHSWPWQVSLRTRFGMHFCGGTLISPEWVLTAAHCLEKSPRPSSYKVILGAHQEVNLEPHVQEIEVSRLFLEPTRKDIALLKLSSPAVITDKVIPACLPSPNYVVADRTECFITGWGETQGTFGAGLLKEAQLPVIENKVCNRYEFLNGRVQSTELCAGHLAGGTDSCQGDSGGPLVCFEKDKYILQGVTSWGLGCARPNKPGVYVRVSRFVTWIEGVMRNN

B1: tissue Plasminogen Activator (protein)
chain: SYQVICRDEKTQMIYQQHQSWLRPVLRSNRVEYCWCNSGRAQCHSVPVKSCSEPRCFNGGTCQQALYFSDFVCQCPEGFAGKCCEIDTRATCYEDQGISYRGTWSTAESGAECTNWNSSALAQKPYSGRRPDAIRLGLGNHNYCRNPDRDSKPWCYVFKAGKYSSEFCSTPACSEGNSDCYFGNGSAYRGTHSLTESGASCLPWNSMILIGKVYTAQNPSAQALGLGKHNYCRNPDGDAKPWCHVLKNRRLTWEYCDVPSCSTCGLRQYSQPQFRIKGGLFADIASHPWQAAIFAKHRRSPGERFLCGGILISSCWILSAAHCFQERFPPHHLTVILGRTYRVVPGEEEQKFEVEKYIVHKEFDDDTYDNDIALLQLKSDSSRCAQESSVVRTVCLPPADLQLPDWTECELSGYGKHEALSPFYSERLKEAHVRLYPSSRCTSQHLLNRTVTDNMLCAGDTRSGGPQANLHDACQGDSGGPLVCLNDGRMTLVGIISWGLGCGQKDVPGVYTKVTNYLDWIRDNMRP
With B1 as the protein, how does the “conversion of one-chain delta-plasminogen into two-chain delta-plasmin (reduced SDS-PAGE)” value read?
The value was “delta-plasminogen indeed can be activated by all three plasminogen activators”.
